Source: patent publication US9274129B2, “Methods and reagents for detecting bioactive lipids” (Lpath, Inc., priority 2006, dated 2016)
Entries after “also recorded” stand apart in the source; their conditions may differ. Each block holds one molecule with its values, some of them ahead of it.

Key:
SKOV3 cells = assay: Taxol-induced apoptosis (caspase activity); type: cell-based, human; conditions: Taxol 0.5 mM, 24 h
Experimental: The ability of LPA to protect ovarian tumor cells against apoptosis when exposed to clinically-relevant levels of the chemotherapeutic agent, paclitaxel (Taxol) was investigated. SKVO3 cells were treated with 1% FBS (S), Taxol (0.5 mM), +/−anti-LPA mAbs for 24 h. […] Apoptosis was assayed by measurement of the caspase activity as recommended by the manufacturer (Promega). As anticipated, LPA protected most of the cancer cell lines tested from taxol-induced cell death. […] Moreover, the anti-LPA antibody was able to remove the protection provided by serum. Serum is estimated to contain about 5-20 mM LPA. […] Taxol-induced caspase activation was enhanced by the addition of all 3 of the anti-LPA mAbs to the culture medium.

[1] = Direct ELISA on S1P-coated plates, chimeric antibody and mutants; type: binding; conditions: antibody 0.1 ug/ml
Experimental: Microtiter ELISA plates (Costar) were coated overnight with S1P diluted in 1 M Carbonate Buffer (pH 9.5) at 37° C. for 1 hr. Plates were washed with PBS (137 mM NaCl, 2.68 mM KCl, 10.1 mM Na2HPO4, 1.76 mM KH2PO4; pH 7.4) and blocked with PBS/BSA/Tween-20 for 1 hr at room temp or overnight at 4° C. For the primary incubation (1 hr at room temp.), a standard curve using the anti-S1P mAb and the samples to be tested for binding was built using the following set of dilutions: 0.4 μg/mL, 0.2 μg/mL, 0.1 μg/mL, 0.05 μg/mL, 0.0125 μg/mL, and 0 μg/mL, and 100 μl added to each well. Plates were washed and incubated with 100 μl per well of HRP conjugated goat anti-mouse (1:20,000 dilution) (Jackson Immuno Research) or HRP conjugated goat anti-human (H+L) diluted 1:50,000 (Jackson Immuno Research) for 1 hr at room temperature. After washing, the enzymatic reaction was detected with tetramethylbenzidine (Sigma) and stopped by adding 1 M H2SO4. The optical density (OD) was measured at 450 nm using a Thermo Multiskan EX. Raw data were transferred to GraphPad software for analysis.
The chromogenic reaction was measured and reported as Optical density (OD). The concentration of the panel of antibodies was 0.1 ug/ml. No interaction of the second antibody with S1P-coated matrix alone was detected.

[2] = system: selected human cancer cell lines; assay: LPA-induced cancer cell proliferation; type: cell-based; conditions: LPA 0.01 mM to 10 mM, 7 human-derived and one rat-derived line, dose dependent
Experimental: LPA is a potent growth factor supporting cell survival and proliferation by stimulation of Gi, Gq and G12/13 via GPCR-receptors and activation of downstream signaling events. Cell lines were tested for their proliferative response to LPA ([…]). Cell proliferation was assayed by using the cell proliferation assay kit from Chemicon (Temecula Calif.) (Panc-1) and the Cell-Blue titer from Pierce (Caki-1). Each data point is the mean of three independent experiments. […] Even though tumor-derived cells normally have high basal levels of proliferation, LPA appears to further augment proliferation in most tumor cell lines. Anti-LPA mAbs (B7 and B58) were assessed for the ability to inhibit LPA-induced proliferation in selected human cancer cell lines.

Caki-1 cells = assay: In vitro IL-8 production, Caki-1; type: cell-based, human; conditions: 18:1 LPA 0.2 mM, 24 h, cells without mAb
Experimental: Three anti-LPA mAbs (B3, B7 and B58) were tested for their abilities to reduce in vitro IL-8 production compared to a non-specific antibody (NS). Caki-1 cells were seeded in 96 well plates and grown to confluency. After overnight serum starvation, cells were treated with 18:1 LPA (0.2 mM) with or without anti-LPA mAb B3, B7, B58 or NS (Non-Specific). After 24 h, cultured supernatants of renal cancer cells (Caki-1), treated with or without LPA and in presence of increasing concentrations of the anti-LPA mAbs B3, B7 and B58, were collected and analyzed for IL-8 levels using a commercially available ELISA kit (Human Quantikine Kit, R&D Systems, Minneapolis, Minn.). […] Similar results were obtained with the other well-known pro-angiogenic factor, VEGF. The inhibition of IL-8 release by the anti-LPA mAbs was also observed in other cancerous cell lines such as the pancreatic cell line Panc-1.

[3] = Competitive ELISA of anti-S1P mAb, competitor S1P; type: binding
Experimental: (§1) Screening of serum and cell supernatant for SIP-specific antibodies was by direct ELISA using the thiolated S1P analog described in Example 1 (i.e., compound 10) as the antigen. A standard ELISA was performed, as described below, except that 50 ul of sample (serum or cell supernatant) was diluted with an equal volume of PBS/0.1% Tween-20 (PBST) during the primary incubation. ELISAs were performed in 96-well high binding ELISA plates (Costar) coated with 0.1 μg of chemically-synthesized compound 10 conjugated to BSA in binding buffer (33.6 mM Na2CO3, 100 mM NaHCO3; pH 9.5). The thiolated-S1P-BSA was incubated at 37° C. for 1 hr. at 4° C. overnight in the ELISA plate wells. The plates were then washed four times with PBS (137 mM NaCl, 2.68 mM KCl, 10.14 mM Na2HPO4, 1.76 mM KH2PO4; pH 7.4) and blocked with PBST for 1 hr. at room temperature. For the primary incubation step, 75 uL of the sample (containing the S1P to be measured), was incubated with 25 uL of 0.1 ug/mL anti-S1P mAb diluted in PBST and added to a well of the ELISA plate. […] Optical density of the samples was determined by measurement at 450 nm using an EL-X-800 ELISA plate reader (Bio-Tech).
(§2) For cross reactivity, a competitive ELISA was performed as described above, except for the following alterations (FIG. 4). […] Biotin incorporation was determined as per kit protocol and ranged from 7 to 11 biotin molecules per antibody. […]

[4] = Competitive ELISA of anti-S1P mAb, competitor DH-S1P; type: binding
Experimental: as §1, §2

[5] = Competitive ELISA of anti-S1P mAb, competitor SPC; type: binding
Experimental: as §1, §2

[6] = Competitive ELISA of anti-S1P mAb, competitor C1P; type: binding
Experimental: as §1, §2

[7] = Competitive ELISA of anti-S1P mAb, competitor LPA; type: binding
Experimental: as §1, §2

[8] = ELISA with exchanged crosslinker or protein carrier in the laydown material; type: binding
Text: For example, the normal crosslinker SMCC was exchanged for IOA in conjugating the thiolated-S1P to BSA as the laydown material in the ELISA. […] Similarly, KLH was exchanged for BSA as the protein that was complexed with thiolated-S1P as the laydown material.

Molecule: CC(=O)O[C@H]1C(=O)[C@@]2(C)[C@H]([C@H](OC(=O)c3ccccc3)[C@]3(O)C[C@H](OC(=O)[C@H](O)[C@@H](NC(=O)c4ccccc4)c4ccccc4)C(C)=C1C3(C)C)[C@]1(OC(C)=O)CO[C@@H]1C[C@@H]2O [Taxol, paclitaxel]
caspase-3,7 activation (SKOV3 cells): induced caspase-3,7 activation

Binding [1]: 2 OD
Molecule: CysPhe

Binding [1]: 1.6 OD
Molecule: MetLeu

Molecule: lysophosphatidic acid [LPA]
proliferation of tumor cell lines [2]: increased proliferation
increase of IL-8 expression (Caki-1 cells): 100%

competition by free S1P for mAb binding to S1P on the plate [3]: can compete for binding
competition by free DH-S1P for mAb binding to S1P on the plate [4]: can compete for binding
antibody binding to C1P [6]: no antibody binding was observed
antibody binding to LPA [7]: no binding
binding characteristics with KLH exchanged for BSA as carrier ([8]; laydown thiolated-S1P complexed with protein): no significant difference
binding characteristics with IOA instead of SMCC as crosslinker ([8]; laydown thiolated-S1P conjugated to BSA, compared with BSA-SMCC-thiolated-S1P): nearly identical
B1: anti-S1P mAb: murine monoclonal antibody directed against S1P from hybridoma clone 306D326.26 (ATCC SD-5362) (antibody, listed as Mus musculus, V domains shown)
VH: QAHLQQSDAELVKPGASVKISCKVSGFIFIDHTIHWMKQRPEQGLEWIGCISPRHDITKYNEMFRGKATLTADKSSTTAYIQVNSLTFEDSAVYFCARGGFYGSTIWFDFWGQGTTLTVS
VL: ETTVTQSPASLSMAIGEKVTIRCITTTDIDDDMNWFQQKPGEPPNLLISEGNILRPGVPSRFSSSGYGTDFLFTIENMLSEDVADYYCLQSDNLPFTFGSGTKLEIK
distinction of thiolated-S1P analog (compound 10) from natural S1P [3]: unable to distinguish
competition by SPC for mAb binding to S1P on the plate [5]: somewhat reduced; also recorded: only slightly competes for binding
